The experiment addresses toxin B (TcdB) from Clostridioides difficile VPI 10,463 (Clostridioides difficile VPI 10,463) (UniProt P18177).

“And” between values parts separate entries of the source, which are not always exact repeats. Identical values can stand only once.

Chain of toxin B (TcdB) from Clostridioides difficile VPI 10,463 (Clostridioides difficile VPI 10,463) (P18177 whole entry): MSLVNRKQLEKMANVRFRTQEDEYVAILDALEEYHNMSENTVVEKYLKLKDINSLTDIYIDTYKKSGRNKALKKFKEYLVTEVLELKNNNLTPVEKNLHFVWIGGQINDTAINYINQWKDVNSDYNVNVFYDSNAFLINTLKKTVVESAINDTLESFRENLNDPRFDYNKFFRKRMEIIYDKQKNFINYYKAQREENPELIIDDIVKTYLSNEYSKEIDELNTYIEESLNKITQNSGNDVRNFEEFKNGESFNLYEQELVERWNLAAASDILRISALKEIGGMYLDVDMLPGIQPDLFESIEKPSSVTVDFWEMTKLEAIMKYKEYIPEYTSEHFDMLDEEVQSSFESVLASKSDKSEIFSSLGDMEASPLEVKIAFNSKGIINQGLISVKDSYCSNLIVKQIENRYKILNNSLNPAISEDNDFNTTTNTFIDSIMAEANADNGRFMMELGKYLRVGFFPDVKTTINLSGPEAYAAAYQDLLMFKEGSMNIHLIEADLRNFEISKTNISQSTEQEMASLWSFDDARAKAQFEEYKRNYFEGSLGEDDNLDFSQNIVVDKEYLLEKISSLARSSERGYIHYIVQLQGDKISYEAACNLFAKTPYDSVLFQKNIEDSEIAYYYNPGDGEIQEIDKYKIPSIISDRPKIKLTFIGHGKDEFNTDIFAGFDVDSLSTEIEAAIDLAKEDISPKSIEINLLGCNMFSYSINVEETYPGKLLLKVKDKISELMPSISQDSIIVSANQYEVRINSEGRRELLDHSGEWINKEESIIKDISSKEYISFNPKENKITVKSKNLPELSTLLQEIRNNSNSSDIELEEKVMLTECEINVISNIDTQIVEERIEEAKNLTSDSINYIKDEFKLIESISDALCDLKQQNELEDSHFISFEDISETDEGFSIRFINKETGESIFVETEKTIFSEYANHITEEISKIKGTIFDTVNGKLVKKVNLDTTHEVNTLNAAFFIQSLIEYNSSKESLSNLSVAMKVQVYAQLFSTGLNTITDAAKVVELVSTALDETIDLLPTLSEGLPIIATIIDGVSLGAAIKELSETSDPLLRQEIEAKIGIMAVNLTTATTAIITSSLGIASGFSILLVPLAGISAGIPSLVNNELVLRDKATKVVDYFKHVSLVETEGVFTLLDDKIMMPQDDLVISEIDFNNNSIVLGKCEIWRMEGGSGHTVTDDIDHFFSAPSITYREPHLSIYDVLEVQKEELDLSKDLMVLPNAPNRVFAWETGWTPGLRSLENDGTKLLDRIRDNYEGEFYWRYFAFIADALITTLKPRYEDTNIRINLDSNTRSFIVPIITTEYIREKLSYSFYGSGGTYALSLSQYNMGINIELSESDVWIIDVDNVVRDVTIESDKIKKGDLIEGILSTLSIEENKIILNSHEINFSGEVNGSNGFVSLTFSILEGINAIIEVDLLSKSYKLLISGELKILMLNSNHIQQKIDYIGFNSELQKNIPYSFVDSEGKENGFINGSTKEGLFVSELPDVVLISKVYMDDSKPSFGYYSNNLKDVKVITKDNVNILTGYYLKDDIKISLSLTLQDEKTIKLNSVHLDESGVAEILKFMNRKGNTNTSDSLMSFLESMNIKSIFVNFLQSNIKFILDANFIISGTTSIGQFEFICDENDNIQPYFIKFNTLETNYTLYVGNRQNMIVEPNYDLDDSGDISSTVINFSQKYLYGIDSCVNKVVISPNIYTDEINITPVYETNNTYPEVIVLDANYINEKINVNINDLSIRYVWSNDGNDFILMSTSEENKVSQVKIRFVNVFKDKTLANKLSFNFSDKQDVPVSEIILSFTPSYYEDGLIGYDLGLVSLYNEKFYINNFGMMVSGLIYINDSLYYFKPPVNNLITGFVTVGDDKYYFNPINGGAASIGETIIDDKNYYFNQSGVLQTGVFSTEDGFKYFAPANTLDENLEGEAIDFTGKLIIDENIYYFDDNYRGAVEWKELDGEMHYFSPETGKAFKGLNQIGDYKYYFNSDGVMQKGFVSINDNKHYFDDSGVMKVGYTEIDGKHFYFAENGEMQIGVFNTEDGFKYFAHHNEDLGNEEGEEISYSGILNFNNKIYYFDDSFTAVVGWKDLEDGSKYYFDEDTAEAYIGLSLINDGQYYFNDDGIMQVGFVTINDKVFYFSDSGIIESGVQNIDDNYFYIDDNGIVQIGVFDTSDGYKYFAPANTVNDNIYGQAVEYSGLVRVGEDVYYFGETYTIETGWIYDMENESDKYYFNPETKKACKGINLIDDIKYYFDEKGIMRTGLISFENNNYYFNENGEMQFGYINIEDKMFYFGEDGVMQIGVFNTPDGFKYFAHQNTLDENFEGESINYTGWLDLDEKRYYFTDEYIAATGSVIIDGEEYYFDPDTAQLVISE

For the molecule KFINIFIHGNKRSIKAI [Angie 5], the other is 40.9 µM and 46.3 µM.

(Values after article PMC12209146.)
